Test results from PMC4456216.

Experiments:
Experiment in all cases: ITC
[1] = molecular target: BMAL1 transactivation domain (TAD), residues 579-626 (mouse)
[2] = molecular target: BMAL1 TAD V602A I603F (mouse)
[3] = molecular target: BMAL1 TAD S605N L606Y (mouse)

Chain of mouse CBP KIX domain (P45481 586-665): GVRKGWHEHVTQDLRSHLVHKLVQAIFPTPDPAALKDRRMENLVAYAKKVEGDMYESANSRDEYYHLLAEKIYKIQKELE

Question: With “mouse CBP KIX domain (from UniProt P45481 586-665) (domain or fragment)” as the substance, how does the stoichiometry N [1] read?
Answer: Its stoichiometry N is 0.74.

Question: What about the stoichiometry N [2] of the same substance?
Answer: Its stoichiometry N is 0.82.

Question: And the stoichiometry N [3]?
Answer: Its stoichiometry N is 1.06.
